For one data set, the system named is biotinyl-Phe-oxazolone. The data set can be described thus: self-aminoacylation, catalytic enhancement (BFO) (fold over background); higher = more active; k-Seq, kA / k0A0; sequences stand for … in GGGAAUGGAUCCACAUCUACGAAUUC…UUCACUGCAGACUUGACGAAGCUG
In short, it runs like this:
(§1)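 Catalytic enhancement equals the median kA over the uncatalyzed rate, the latter read from the low-activity peak of a bimodal Gaussian fit. Values of kA came from fitting each sequence's fraction reacted to a pseudo-first-order model, with 1000 bootstraps. Reacted RNA was captured with streptavidin and quantified by triplicate qPCR and Illumina sequencing after 90 minutes at room temperature with 2–1250 μM biotinyl-aminoacyl-oxazolone and 0.43 μM mutagenized RNA pools bearing a 21-nt variable region.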

A further data set deals with biotinyl-Leu-oxazolone. Kind of data set: self-aminoacylation, catalytic enhancement (BLO) (fold over background); higher = more active; k-Seq, kA / k0A0; sequences stand for … in GGGAAUGGAUCCACAUCUACGAAUUC…UUCACUGCAGACUUGACGAAGCUG
An outline of the steps:
as §1

In a further data set the test system is biotinyl-Met-oxazolone. Kind of data set: self-aminoacylation, catalytic enhancement (BMO) (fold over background); higher = more active; k-Seq, kA / k0A0; sequences stand for … in GGGAAUGGAUCCACAUCUACGAAUUC…UUCACUGCAGACUUGACGAAGCUG
An outline of the steps: as §1

The test system of another data set is biotinyl-Trp-oxazolone. Kind of data set: self-aminoacylation, catalytic enhancement (BWO) (fold over background); higher = more active; k-Seq, kA / k0A0; sequences stand for … in GGGAAUGGAUCCACAUCUACGAAUUC…UUCACUGCAGACUUGACGAAGCUG
In short, it runs like this: as §1

In a further data set the test system is biotinyl-Val-oxazolone. Kind of data set: self-aminoacylation, catalytic enhancement (BVO) (fold over background); higher = more active; k-Seq, kA / k0A0; sequences stand for … in GGGAAUGGAUCCACAUCUACGAAUUC…UUCACUGCAGACUUGACGAAGCUG
In short, it runs like this: as §1

The next data set deals with biotinyl-Ile-oxazolone. The data set can be described thus: self-aminoacylation, catalytic enhancement (BIO) (fold over background); higher = more active; k-Seq, kA / k0A0; sequences stand for … in GGGAAUGGAUCCACAUCUACGAAUUC…UUCACUGCAGACUUGACGAAGCUG
In short, it runs like this:
as §1

This sample holds only a part of the variants without activity.

As to “CCACAGUUCACGCAAUCGGUC [Fam1B.1 aminoacylation ribozyme variant]”, the self-aminoacylation with biotinyl-Phe-oxazolone was 3.2; in the data set on biotinyl-Leu-oxazolone, 1.73; in the data set on biotinyl-Met-oxazolone, 1.51; in the data set on biotinyl-Trp-oxazolone, 2.1; in the data set on biotinyl-Val-oxazolone, 1.86; in the data set with biotinyl-Ile-oxazolone it was 1.45.
Turning to “AGUCACCUAGGUCAUAGGGUG [Fam2.2 aminoacylation ribozyme variant]”, the self-aminoacylation with biotinyl-Phe-oxazolone turned out to be 9.22; in the data set on biotinyl-Leu-oxazolone, 2.56; in the data set on biotinyl-Met-oxazolone, 3.12; in the data set with biotinyl-Trp-oxazolone it was 2.56; with biotinyl-Val-oxazolone, 2.17; with biotinyl-Ile-oxazolone, 2.18.
As for “CCACUUCAAACAAUCGGUCUA [Fam1A.1 aminoacylation ribozyme variant]”, the self-aminoacylation with biotinyl-Phe-oxazolone was 28.5; in the data set on biotinyl-Leu-oxazolone it was 1.5; in the data set with biotinyl-Met-oxazolone, 0.991; in the data set with biotinyl-Trp-oxazolone it was 17.4; with biotinyl-Val-oxazolone it was 0.99; in the data set with biotinyl-Ile-oxazolone, 1.19.
In the case of “CUACUUCAAACAAUCGGCCAG [Fam1A.1 aminoacylation ribozyme variant]”, the self-aminoacylation in the data set on biotinyl-Phe-oxazolone was found to be 1.84; with biotinyl-Leu-oxazolone, 1.19; with biotinyl-Met-oxazolone it was 1.02; in the data set on biotinyl-Trp-oxazolone it was 0.954; with biotinyl-Val-oxazolone, 1.36; with biotinyl-Ile-oxazolone it was 1.44.
As to “AUUACCCUGGGCCUCGAGUGA [Fam2.1 aminoacylation ribozyme variant]”, the self-aminoacylation with biotinyl-Phe-oxazolone came to 22.6; in the data set with biotinyl-Leu-oxazolone, 3.74; with biotinyl-Met-oxazolone, 3.15; with biotinyl-Trp-oxazolone, 4.65; in the data set with biotinyl-Val-oxazolone, 2.61; with biotinyl-Ile-oxazolone it was 2.41.
For the sequence “AAGUUUGCUACUAGUCCCAAG [Fam3.1 aminoacylation ribozyme variant]”, the self-aminoacylation was 0.773 with biotinyl-Phe-oxazolone; 0.899 in the data set with biotinyl-Leu-oxazolone; 0.931 with biotinyl-Met-oxazolone; 0.786 in the data set on biotinyl-Trp-oxazolone; 0.759 with biotinyl-Val-oxazolone; 0.894 with biotinyl-Ile-oxazolone.
As for “ACUCACCUCGGUCAUCGGGUG [Fam2.2 aminoacylation ribozyme variant]”, the self-aminoacylation with biotinyl-Phe-oxazolone is 34.4; with biotinyl-Leu-oxazolone it was 5.87; with biotinyl-Met-oxazolone it was 4.36; in the data set with biotinyl-Trp-oxazolone it was 6.06; in the data set on biotinyl-Val-oxazolone, 4.77; with biotinyl-Ile-oxazolone it was 4.08.
For the sequence “CCACACUCCAAGCAAUCGGUG [Fam1B.1 aminoacylation ribozyme variant]”, the self-aminoacylation with biotinyl-Phe-oxazolone came out at 59.9; in the data set with biotinyl-Leu-oxazolone, 9.97; in the data set with biotinyl-Met-oxazolone, 7.47; with biotinyl-Trp-oxazolone it was 6.72; with biotinyl-Val-oxazolone, 4.45; in the data set with biotinyl-Ile-oxazolone, 4.43.
In the case of “AAGUUUGCUAAUAGUCUCCAG [Fam3.1 aminoacylation ribozyme variant]”, the self-aminoacylation in the data set on biotinyl-Phe-oxazolone amounted to 1.59; with biotinyl-Leu-oxazolone it was 0.909; with biotinyl-Met-oxazolone, 0.855; in the data set with biotinyl-Trp-oxazolone, 1.02; with biotinyl-Val-oxazolone it was 0.947; in the data set with biotinyl-Ile-oxazolone, 1.1.
As to “CUACUUCCAACAUUCGGUCUG [Fam1A.1 aminoacylation ribozyme variant]”, the self-aminoacylation was 1.68 in the data set with biotinyl-Phe-oxazolone; 1.54 in the data set on biotinyl-Leu-oxazolone; 1.07 with biotinyl-Met-oxazolone; 1.16 with biotinyl-Trp-oxazolone; 1.39 with biotinyl-Val-oxazolone; 1.17 with biotinyl-Ile-oxazolone.
As for “AAGUUUGAUAAUAGUCGCAAA [Fam3.1 aminoacylation ribozyme variant]”, the self-aminoacylation in the data set on biotinyl-Phe-oxazolone turned out to be 1.22; in the data set on biotinyl-Leu-oxazolone, 0.997; in the data set with biotinyl-Met-oxazolone, 1.08; in the data set on biotinyl-Trp-oxazolone it was 1.04; in the data set with biotinyl-Val-oxazolone it was 0.975; with biotinyl-Ile-oxazolone it was 1.18.
For “AAGUUUGGUAAUAGUCGCAAA [Fam3.1 aminoacylation ribozyme variant]”, the self-aminoacylation in the data set with biotinyl-Phe-oxazolone was determined as 1.72; with biotinyl-Leu-oxazolone, 1.44; with biotinyl-Met-oxazolone, 1.66; in the data set with biotinyl-Trp-oxazolone it was 1.75; with biotinyl-Val-oxazolone, 1.44; with biotinyl-Ile-oxazolone it was 1.88.
Consider “AUUCACCUAGGCCAGCGGGUG [Fam2.2 aminoacylation ribozyme variant]”, for which the self-aminoacylation came to 24.8 in the data set on biotinyl-Phe-oxazolone; 4.78 in the data set with biotinyl-Leu-oxazolone; 4.21 with biotinyl-Met-oxazolone; 3.78 in the data set with biotinyl-Trp-oxazolone; 4.07 in the data set with biotinyl-Val-oxazolone; 3.59 in the data set with biotinyl-Ile-oxazolone.
As to “AUUACCCUGGUCAUUAAGUGA [Fam2.1 aminoacylation ribozyme variant]”, the self-aminoacylation with biotinyl-Phe-oxazolone was 55.5; in the data set with biotinyl-Leu-oxazolone, 10.3; in the data set on biotinyl-Met-oxazolone it was 11.2; with biotinyl-Trp-oxazolone, 13.4; with biotinyl-Val-oxazolone, 5.31; with biotinyl-Ile-oxazolone it was 4.88.
For the sequence “AAGUCUGCUAAUAGUCGCGAG [Fam3.1 aminoacylation ribozyme variant]”, the self-aminoacylation in the data set on biotinyl-Phe-oxazolone is 5.39; in the data set with biotinyl-Leu-oxazolone, 1.36; in the data set on biotinyl-Met-oxazolone, 1.77; with biotinyl-Trp-oxazolone it was 3.06; with biotinyl-Val-oxazolone it was 1.33; in the data set on biotinyl-Ile-oxazolone, 1.26.
Turning to “AACUUCGCUAAUAGUCGCAAG [Fam3.1 aminoacylation ribozyme variant]”, the self-aminoacylation in the data set with biotinyl-Phe-oxazolone was 14.5; with biotinyl-Leu-oxazolone, 3.44; in the data set with biotinyl-Met-oxazolone, 3.5; with biotinyl-Trp-oxazolone, 3.06; in the data set with biotinyl-Val-oxazolone it was 3.03; with biotinyl-Ile-oxazolone, 2.98.
On to “AUUCACCUAGGUCAUCGGAUA [Fam2.2 aminoacylation ribozyme variant]”, for which the self-aminoacylation in the data set with biotinyl-Phe-oxazolone worked out at 0.865; with biotinyl-Leu-oxazolone it was 0.877; in the data set with biotinyl-Met-oxazolone it was 0.754; with biotinyl-Trp-oxazolone it was 0.615; in the data set on biotinyl-Val-oxazolone, 1.2; with biotinyl-Ile-oxazolone, 0.894.
“AAUCACCUAGGGCAUCGGGUG [Fam2.2 aminoacylation ribozyme variant]”: the self-aminoacylation turned out to be 28 in the data set with biotinyl-Phe-oxazolone; 3.93 in the data set on biotinyl-Leu-oxazolone; 3.75 with biotinyl-Met-oxazolone; 5.34 with biotinyl-Trp-oxazolone; 3.49 with biotinyl-Val-oxazolone; 3.31 in the data set on biotinyl-Ile-oxazolone.
On to “AAGAUUGCUAAUAGUCGCUAG [Fam3.1 aminoacylation ribozyme variant]”, for which the self-aminoacylation with biotinyl-Phe-oxazolone is 0.773; with biotinyl-Leu-oxazolone, 0.963; in the data set with biotinyl-Met-oxazolone, 0.811; with biotinyl-Trp-oxazolone, 0.937; with biotinyl-Val-oxazolone, 1.04; in the data set with biotinyl-Ile-oxazolone, 1.23.
Take “CCACACCUCAACCAAUCGGUC [Fam1B.1 aminoacylation ribozyme variant]”: the self-aminoacylation in the data set on biotinyl-Phe-oxazolone turned out to be 3.45; in the data set on biotinyl-Leu-oxazolone it was 1.28; in the data set with biotinyl-Met-oxazolone it was 1.37; in the data set with biotinyl-Trp-oxazolone, 3.13; with biotinyl-Val-oxazolone it was 1.02; in the data set on biotinyl-Ile-oxazolone, 1.11.
As to “CUACUUCAAUCAAACGGUCUG [Fam1A.1 aminoacylation ribozyme variant]”, the self-aminoacylation with biotinyl-Phe-oxazolone was 0.638; with biotinyl-Leu-oxazolone it was 0.671; in the data set with biotinyl-Met-oxazolone, 0.639; with biotinyl-Trp-oxazolone, 0.481; in the data set on biotinyl-Val-oxazolone, 0.794; in the data set with biotinyl-Ile-oxazolone, 0.637.
For the sequence “ACUACCCGGGUCAUCGAGUGA [Fam2.1 aminoacylation ribozyme variant]”, the self-aminoacylation in the data set on biotinyl-Phe-oxazolone is 43.7; with biotinyl-Leu-oxazolone, 8.28; in the data set with biotinyl-Met-oxazolone, 7.84; with biotinyl-Trp-oxazolone, 8.27; with biotinyl-Val-oxazolone it was 4.17; in the data set on biotinyl-Ile-oxazolone, 4.64.
With “CUACUUCCAACAAUCGGUGUG [Fam1A.1 aminoacylation ribozyme variant]”, the self-aminoacylation in the data set with biotinyl-Phe-oxazolone came out at 0.789; with biotinyl-Leu-oxazolone, 1.28; with biotinyl-Met-oxazolone it was 1.06; with biotinyl-Trp-oxazolone it was 1.09; in the data set on biotinyl-Val-oxazolone, 1.03; in the data set on biotinyl-Ile-oxazolone it was 0.97.

(Values after the supplement of paper PMC9233669.)
